{"source": "the supplement of paper PMC12636428"}
{"test_system": "Saccharomyces cerevisiae", "assay": "transcriptional activation domain activity (GFP:mCherry ratio, weighted mean of sorted bins, harmonized to initial dataset scale) (arbitrary fluorescence ratio units); higher = stronger transcriptional activation", "details": "beta-estradiol 1 µM; induction time 4 h", "method_in_brief": "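Activation activity, the read-weighted mean of bin median fluorescence averaged across barcodes, was linearly mapped onto the scale of the initial dataset. It was measured for barcoded protein tiles fused to an estradiol-inducible synthetic transcription factor at URA3 in GFP-reporter yeast diploids. Cultures diluted 1:5 into SC with 1 uM beta-estradiol were held 4 hours at 30 °C, sorted into 8 bins by GFP:mCherry ratio, and barcode-sequenced, and tiles under 50 reads were discarded.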"}
{"sequence": "MRDIIGISIFLFFSLFLFYLSFCFCMRNVNLSFSLFILTLIDCLTDLLIMVPI", "transcriptional activation domain activity": 60300}
{"sequence": "MRDISTLTVCCPLLFFLNLLHFLCFSLCFSLTYFINCLTFLLFLYISFFIKLF", "transcriptional activation domain activity": 42800}
{"sequence": "MRDNQYPPYLLSVVHFTCQPPFGVRNLHSPIFILFQYVPHVLLIHFSSFVIFF", "transcriptional activation domain activity": 64300}
{"sequence": "MREAERAREEQEQERRRVEKVREREREREQERLERERLKAERERAAAAAVVAA", "transcriptional activation domain activity": 40100}
{"sequence": "MREDITQIDLITFYLCIFLSITVFVELIILCWIRILSIFNVCLFALLLCQLVY", "transcriptional activation domain activity": 33700}
{"sequence": "MREGWVWISEYRVLCLYFFFFLFLFFSNSFFFSPIYLFLFFTLFLVCLLCFRP", "transcriptional activation domain activity": 53400}
{"sequence": "MREKDNDETTTGIFFLFLFLDKILLLFAWYLPWSSSQFLRLLFSLVLFWAVTL", "transcriptional activation domain activity": 45300}
{"sequence": "MRELFIFILFLFHFYPYSYFNYYIFFSFSYFLFRYFVSIIIIFFLIQVVFGLV", "transcriptional activation domain activity": 101000}
{"sequence": "MREYIRFYFDTLHSSRVFVVWLLTHVLFLEKDRLKAMFAKDEFNGIEEIKMRY", "transcriptional activation domain activity": 24900}
{"sequence": "MRFLFFLLLFLFFFPPPLPPISSLQGCFFVIFFFGFFIFSSFLLFYAVFFFIV", "transcriptional activation domain activity": 39000}
{"sequence": "MRFLLLSFPCNHHPSLSLYISSISLFLLRPFIFLSLLFFCIVSYYLGVCVVWG", "transcriptional activation domain activity": 53500}
{"sequence": "MRFLLTIIHFFLTLFLSYTLFLSVILLFSRLYYFLSIIRSSYAIIWIFFLFIL", "transcriptional activation domain activity": 52000}
{"sequence": "MRFPPLLFSFFLFFLFFFHLFLFLFHNLFFFYQSFFSSQPLFSFSLSFLSSSL", "transcriptional activation domain activity": 42800}
{"sequence": "MRFSSLLFLFCLFHFPLFFFFFSSFFNFCLPILFLPNLFSPFLFPFSPHLFFF", "transcriptional activation domain activity": 51900}
{"sequence": "MRFWFLYLFLLFGIGWVGLALLYYYRIFCLFLCNIRILFLLVCFISTHSIIYS", "transcriptional activation domain activity": 46200}
{"sequence": "MRGCLVAGITLLTRFVVASCGRRNVGRMRHRPRGQPLPSSLMLLVVICREFRK", "transcriptional activation domain activity": 66500}
{"sequence": "MRGFFWQILLQTCLLPIVTCTLLPTPLMPFCALQHTPLSNLFLLLSWLYFLPY", "transcriptional activation domain activity": 48400}
{"sequence": "MRGFYYYLFCLFAEFGIHGVLFHGGFFLLLFFFLSSSLWLALTRFRWPFPFVF", "transcriptional activation domain activity": 57800}
{"sequence": "MRGLCRSLKLCKLFVTMFDGWMMLFSFFFFFLFLLFFYYYSCCSDGFLLCFFL", "transcriptional activation domain activity": 42500}
{"sequence": "MRGTSLFLFYFISFLSLFLFQLLHFFFFSYFLFRYFVSIIIIFFLIQVVFGLV", "transcriptional activation domain activity": 53200}
{"sequence": "MRGVCSFCSFCSFSFLFLFLFLFLFFSFFSFFSFCFFLFFPSFLSVSLSFLLS", "transcriptional activation domain activity": 71100}
{"sequence": "MRHEHGGMAFNVFFLWTFMYLCLWLRVNVLCFMSISLFLMSLFFLFFLVWLSG", "transcriptional activation domain activity": 51200}
{"sequence": "MRHVASRWPILPRLLVPIFHLLAWFLIPVGRLCIRSFPLIFSVVCFLCAFSSC", "transcriptional activation domain activity": 51100}
{"sequence": "MRIAIYWRSFSVSTSFFFLPGYSFFLSNWVLFLVYFYDTGCGVCFLPFIMIFF", "transcriptional activation domain activity": 72700}
{"sequence": "MRIFVFFSLLFLFFFCYMYYICLLLFCTLQTYIFILYHIIPYSILIYIYYISN", "transcriptional activation domain activity": 59200}
{"sequence": "MRIIIFMSLLLLKIIMILLLLLLRIKFNWFSFFSILKMLLSMKIMMLFLFLLL", "transcriptional activation domain activity": 35900}
{"sequence": "MRILFTICRYFPLLFYPFYLWAWVPVHSKELCEKLICPFGQYLCILILLCACW", "transcriptional activation domain activity": 56600}
{"sequence": "MRILGCVVNAHLKQMIHRNSLLIIPECPRMFWLGCQTRCVVLGEWIGLHANRF", "transcriptional activation domain activity": 69300}
{"sequence": "MRILQFFSFLYLLLYFSRTLLIVIYTLVILLLNQLLVFFKFLSLFFAFFWYVF", "transcriptional activation domain activity": 41400}
{"sequence": "MRIRYEMSWGFLLSFLLSNGRRKIDHGTSSLRMTLGFLIAHRVYMMIILNFYT", "transcriptional activation domain activity": 47200}
{"sequence": "MRKFLFQSFDILYLLIFLSFFFILSLFFFILIIFGSSPFIYFIFYFNHFFFFD", "transcriptional activation domain activity": 26900}
{"sequence": "MRKLQVRSWSGLHVLSHFQIFDLLALIPGGWCNQILWLQGHHQWYIVILFVFT", "transcriptional activation domain activity": 65800}
{"sequence": "MRKNGSILSFRSFPPSPTFLPSFLLFFFSFPFFPVIFFQTPLLFLLLFFIYWG", "transcriptional activation domain activity": 42000}
{"sequence": "MRKTCRFICNVTRMRTVWIKALERVCARHGVFKPTFPLQRMSILDLEYASLGP", "transcriptional activation domain activity": 52200}
{"sequence": "MRKVLANVPGPGGTWGLGFISGVLLVNPKRLLGYLLRCWSTHHGKLARCLWPI", "transcriptional activation domain activity": 47600}
{"sequence": "MRLCFAKYHFPPPSTFFPPLLFSLLCPVAFYANYCPFFFFFLFLFPYSFFVQE", "transcriptional activation domain activity": 63600}
{"sequence": "MRLEVFCPLANATSHAYLIFCIMHCLYFIRHFFCCRSLSTFYSSRLLLLFHFI", "transcriptional activation domain activity": 80900}
{"sequence": "MRLFRECALFDTFMLYLNGDCMWVCLCLCFYLDFTVLGWFIIYGLVYCRVDDR", "transcriptional activation domain activity": 56000}
{"sequence": "MRLFYSSFLLFSFLPFLPLLWFFNYLIAIVFPFFFFFFLSFVMGLISFRFLLF", "transcriptional activation domain activity": 40200}
{"sequence": "MRLGQLYSLFLFPSFLLSFFIMPLVSVTKYTPGVDNIYFFFFLFFFFFLFFFL", "transcriptional activation domain activity": 36900}
{"sequence": "MRLHCFFLFVFFFSLFSFLLATLCHSPLPLPFVHVSFFPPSLLPLPIFALDPF", "transcriptional activation domain activity": 33100}
{"sequence": "MRLIYLPIIFCRLPSHGWTIWMPIIRALSLLVFSLIYLLFIGDLPALTLTIFF", "transcriptional activation domain activity": 50900}
{"sequence": "MRLLAYGLMSSGVLLAHVVHIWRQRGFFFATCIGLTNHNFGLLVIMNFCLFCS", "transcriptional activation domain activity": 56000}
{"sequence": "MRLLYCFFHPGRIFDWFCWIHHVFLLVFGWLPLDWLYNLWGLGSLPWTLQNMP", "transcriptional activation domain activity": 47300}
{"sequence": "MRLNICKDLWIHSAFRMLSDISAASLFLVSRSYFIIIFTVASLGYTRMLSLYH", "transcriptional activation domain activity": 51900}
{"sequence": "MRLRVFFFISSFMWLLLVSFYCSFFSFAFTLFFFRFPPFFFSLFRFTLLPSPS", "transcriptional activation domain activity": 63700}
{"sequence": "MRLSRCCVFILLFFFDLVYYYPFLLLFNGFGGICIFLVLKRSHRETEFICFMQ", "transcriptional activation domain activity": 60600}
{"sequence": "MRLVYFCAGIYFLVADLVFSLFLFSFSSLLTLFFSPFFSLSLGLTLLEIQFTF", "transcriptional activation domain activity": 51800}
{"sequence": "MRLYCKVVYCHLFVSYLLPLSLTAHLNHLSKGRSLAIFCLLVLILSSFLFSFS", "transcriptional activation domain activity": 27000}
{"sequence": "MRMLLYLLIHFIFMGVWTWLSWFSEVELLMVVLGLLETCFELTDMCGFCIFFV", "transcriptional activation domain activity": 69500}
{"sequence": "MRNDRGERKKEKRRREARERKKKERKGRREKGGKRKEEDEEKGRGGRGRRNGG", "transcriptional activation domain activity": 28600}
{"sequence": "MRNEYYFFTSLSCIFSVLCFVSSFFYLVFSSLVLFFFFFLTGLFYLKFFCWVF", "transcriptional activation domain activity": 39400}
{"sequence": "MRPLSWRLWRTGDSNRELLSHFLFYLGLFFFFREWLFLVLFFLFLLLLLPGVR", "transcriptional activation domain activity": 26600}
{"sequence": "MRQARGLHCRCPFGYRASLVLCLYLDVLFEGGFLYFYFFVPFFHATTFFFFLL", "transcriptional activation domain activity": 37700}
{"sequence": "MRQCCRCGDALKRCVILAVIAFGSVPPVYVGLVACARCRVWLFSPGLLYLKWF", "transcriptional activation domain activity": 55500}
{"sequence": "MRQRLGGQLFSKSFFYALLVTSTWSSKLVYLSPHFTSLPPLLILLYAPTFLLL", "transcriptional activation domain activity": 60600}
{"sequence": "MRQVHIVFSGRDSGRESDIEVVSETSVFHDAAFVLGCVLVRGRSFAAPLLTAL", "transcriptional activation domain activity": 32700}
{"sequence": "MRRFSLFFSLSSLCLWLYVCWIGWIDGFLLVDVMVHLQHVYCVLTILIFLFSL", "transcriptional activation domain activity": 22300}
{"sequence": "MRRLGWVGVSGLVSFLFTSFFFLVSFFLLLLLLLLTHFSFLFFFFAFTFILMM", "transcriptional activation domain activity": 45500}
{"sequence": "MRRLKFGFFPPHFAGFFLSVVLHIIIVYNLWVPFVLLFLLISFLSFLSCIQSF", "transcriptional activation domain activity": 54200}
{"sequence": "MRRLPTAMVSCFGVYAVSHNLSLPFVSSLFPCFIQFCARIILFSLVGYSFWSL", "transcriptional activation domain activity": 74500}
{"sequence": "MRRVARSTKGGKVRSLAALVVVGNGNGVGGFGEGRAVDSAQAVAKATAAATKN", "transcriptional activation domain activity": 32500}
{"sequence": "MRRVTQQTGKGKIPSMYSLVVIGNGDGLVGYGEAKDDEPAAAREKATAKALRS", "transcriptional activation domain activity": 46400}
{"sequence": "MRSMKRTFFFFFLVFDLRYYSVLYYILYLYPFPFFLFLFIFYFPLFLFLSTAS", "transcriptional activation domain activity": 54500}
{"sequence": "MRSSLPKLYRYGCLYWITGLCIFVYILYERRYYCCHNMPYFFHQPWFLCLSSL", "transcriptional activation domain activity": 68800}
{"sequence": "MRSTGLESIKGLGTGYVGICGFIYLCISTYMHFLIPNIPNWIFFLLFLYPFLS", "transcriptional activation domain activity": 59300}
{"sequence": "MRTGSNFVLFAFFCLVLMFTLTFILVFVCCASVGGILYPFRFLLSFVWILVSL", "transcriptional activation domain activity": 28200}
{"sequence": "MRTHVLSMHSALLLLHCLRAVWLAPVSRPRQCLTSPAFCSSTRLAIILGGVRH", "transcriptional activation domain activity": 77900}
{"sequence": "MRTLHGLVYFFPFILYHRLVFLWLRVLALSRYVFLFSVCFPWSVLVTFVIFLY", "transcriptional activation domain activity": 80100}
{"sequence": "MRTLKLCSSCKHLGPEIYAFGWVCTNLSCQILFRHSGFHSLKGVTYSTSFLAQ", "transcriptional activation domain activity": 57400}
{"sequence": "MRTLLMCHANRGIGFFWSGVFLWKVNILAGNGGYSSMCAYVNWLRLTWFSFVA", "transcriptional activation domain activity": 40900}
{"sequence": "MRTPSTSPFDFCFFFAFSFLLLCWPVIPFILLFYILKFLWTYPFVFCVLYFIE", "transcriptional activation domain activity": 37600}
{"sequence": "MRVCVTSLFFFPLSFFPILIKLFLLSHHLFPTSNPFSFVFSSFAPFLPAFSFI", "transcriptional activation domain activity": 40900}
{"sequence": "MRVGVGGLLWLLCGSPFFFLHFISFVFLFFWSLLFFLFCRALHTPFSSYYNYH", "transcriptional activation domain activity": 72000}
{"sequence": "MRWFFLLFWVFLSFFLSLQFFSILSFVCGSLACSISLLCRFSLRGAGFCWLGG", "transcriptional activation domain activity": 47600}
{"sequence": "MRWNRIIIGSHVSVLWMIGYVFTLLLTLVPSPLLEFRYFILPFIFFCIHLPPP", "transcriptional activation domain activity": 48100}
{"sequence": "MRWTSTISFFLLPLGFFFSFHPFHIPFSTFLVSFEICIFFLSFFFSFLPIFLF", "transcriptional activation domain activity": 58500}
{"sequence": "MRYGHLYTWIIILKYSLVLHQVFSLYLCIIFLAIIVFLIFVYWLMLEIFLVLF", "transcriptional activation domain activity": 80500}
{"sequence": "MRYRPSEDLGKKLLLLFIYILFRGKLVVNPFHFFSSFLSFFFFFFFVFFALLL", "transcriptional activation domain activity": 35900}
{"sequence": "MRYRVNYMSTQGIHYSPFLPWIINIFKPNIMLICLFSFLPYFILFIMKSMLVL", "transcriptional activation domain activity": 74600}
{"sequence": "MSAAEDNKPVEAVEKVEEAPQAEEVPKVEEAPAQEEAGATASEKKDANILKTT", "transcriptional activation domain activity": 25700}
{"sequence": "MSAATATKPPATGTTPRREATSRASAPSPAAASRTPARSSTPTATASATTSSP", "transcriptional activation domain activity": 18000}
{"sequence": "MSADYAIGQFRYLAKLLLVHGHWNTYRIGVLHQVFFYKNLIWTGCLLIFQIFT", "transcriptional activation domain activity": 45800}
